We go through ten molecules from paper PMC4832192, “Structural basis of DNA sequence recognition by the response regulator PhoP in Mycobacterium tuberculosis”.

To fix the notation:
B1: DR (dsDNA)
DNA 1: ACGATTCACAGCTGATTCACAGCATCTACG
DNA 2: CGTAGATGCTGTGAATCAGCTGTGAATCGT
B2: tri (three motifs) (dsDNA)
DNA 1: GTACCTCACAGCACTTTCACAGCTTTCTCACAGCATCTATG
DNA 2: CATAGATGCTGTGAGAAAGCTGTGAAAGTGCTGTGAGGTAC
B3: DRs3 (3-bp spacer) (dsDNA)
DNA 1: AAGTACCTCACAGCACTTCACAGCTTTCAT
DNA 2: ATGAAAGCTGTGAAGTGCTGTGAGGTACTT
B4: lpqA (dsDNA)
DNA 1: GCACCTTCACCGCCCGCCCACAGCCACGCA
DNA 2: TGCGTGGCTGTGGGCGGGCGGTGAAGGTGC
B5: hisG (dsDNA)
DNA 1: CGCGACCCGCAGCATGCTCACAGCTTTCGA
DNA 2: TCGAAAGCTGTGAGCATGCTGCGGGTCGCG
B6: ahpC (dsDNA)
DNA 1: TTTGCCTGACAGCGACTTCACGGCACGATG
DNA 2: CATCGTGCCGTGAAGTCGCTGTCAGGCAAA
B7: tetra (four motifs) (dsDNA)
DNA 1: GTACCTCACAGCACTTTCACAGCTTTCTCACAGCTGATTCACAGCATCTATG
DNA 2: CATAGATGCTGTGAATCAGCTGTGAGAAAGCTGTGAAAGTGCTGTGAGGTAC
B8: RD6 (dsDNA)
DNA 1: AAGTACCTCACAGCACTTTCACAGCTTTCAT
DNA 2: ATGAAAGCTGTGAAAGTGCTGTGAGGTACTT
B9: RD6-half (dsDNA)
DNA 1: CAGAAGTCACAGCACTTGGG
DNA 2: CCCAAGTGCTGTGACTTCTG
B10: crystal direct-repeat DNA (dsDNA)
DNA 1: GATTCACAGCTGATTCACAGCATCTA
DNA 2: CTAGATGCTGTGAATCAGCTGTGAAT

One data set has as its target T1, PhoP wild type (Mycobacterium tuberculosis, UniProt P71814 1-247). In words: ITC; 5 mM MgCl2; ITC: 20 mM HEPES pH 7.5, 100 mM NaCl, 5 mM MgCl2, 25 C, […]. The settings on record: protein: recombinant; tags: N-terminal His-tag removed with TEV; chain copies: 2. A general note: ITC needs no label: the signal is the heat of the interaction.
The term Kd denotes the constant that tells how readily two partners part at equilibrium. Consider B1, for which the Kd was found to be 19.2 ± 2.8 nM. The same measure, in the same setting: in the case of B2 it was 4.6 ± 2.7 nM; in that of B3, 433 ± 17.5 nM. As for B4, the Kd was found to be 347 ± 35.1 nM. Still for that read-out and setting: in the case of B5 it was 35.6 ± 4.3 nM; in that of B6, 104 ± 7.2 nM. As to B7, the Kd came to 2.2 ± 0.7 nM.

The next data set deals with PhoPC (isolated effector/DNA-binding domain) (Mycobacterium tuberculosis, UniProt P71814 148-247). Description: ITC; 5 mM MgCl2; ITC: 20 mM HEPES pH 7.5, 100 mM NaCl, 5 mM MgCl2, 25 C, DNA titrated into protein. Conditions: protein: recombinant; tags: His-tag removed (similar procedure); chain copies: 2.
Take B8: the Kd was determined as 188 ± 9 nM. On the same count and under the same terms, in the case of B9 it was 12200 ± 1600 nM.

A further data set has as its target T1, PhoP wild type. In words: X-ray crystal structure (2.4 A); Ca2+ at Asp71; 2:1 PhoP:DNA; ITC: 20 mM HEPES pH 7.5, 100 mM NaCl, 5 mM MgCl2, 25 C, […]. The settings on record: protein: recombinant; tags: N-terminal His-tag removed with TEV; chain copies: 2; G/C overhangs.
On to B10, for which the binding result is recorded as “binds”.
